Source: article PMC10493163

Biological target: angiotensin-converting enzyme 2 (ACE2), noncovalently adsorbed on (GT)6-SWCNTs (human) (UniProt Q9BYF1)
Test: other fluorescence titration

UniProt Q9BYF1, sequence (Q9BYF1 18-805): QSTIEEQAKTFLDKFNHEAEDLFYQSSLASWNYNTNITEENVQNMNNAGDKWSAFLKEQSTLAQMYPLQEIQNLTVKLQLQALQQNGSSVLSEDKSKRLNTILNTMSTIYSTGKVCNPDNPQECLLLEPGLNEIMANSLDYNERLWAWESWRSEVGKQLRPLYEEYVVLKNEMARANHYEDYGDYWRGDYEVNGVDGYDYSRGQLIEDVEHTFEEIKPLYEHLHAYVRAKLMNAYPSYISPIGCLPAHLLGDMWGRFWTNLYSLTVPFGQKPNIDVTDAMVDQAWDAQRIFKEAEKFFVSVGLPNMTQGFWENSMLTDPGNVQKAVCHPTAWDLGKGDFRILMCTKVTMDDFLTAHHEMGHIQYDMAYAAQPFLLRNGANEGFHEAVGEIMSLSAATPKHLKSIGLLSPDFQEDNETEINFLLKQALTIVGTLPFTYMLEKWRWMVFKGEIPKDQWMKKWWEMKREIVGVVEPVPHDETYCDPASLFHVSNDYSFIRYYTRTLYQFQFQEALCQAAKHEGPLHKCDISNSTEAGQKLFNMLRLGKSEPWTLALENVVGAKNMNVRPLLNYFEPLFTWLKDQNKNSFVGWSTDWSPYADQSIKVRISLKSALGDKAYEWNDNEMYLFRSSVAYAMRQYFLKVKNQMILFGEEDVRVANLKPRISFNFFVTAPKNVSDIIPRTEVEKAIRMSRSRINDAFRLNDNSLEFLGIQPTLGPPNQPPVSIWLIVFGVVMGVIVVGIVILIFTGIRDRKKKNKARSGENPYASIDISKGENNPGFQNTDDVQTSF

SARS-CoV-1 spike protein receptor-binding domain (domain or fragment)
dF/F0 of the 1130 nm SWCNT emission peak after 90 min, 10 mg/L: 88.4%
